Assay results published in patent US20260184768A1 (Regeneron, published 2026).

T1: PcrV (aa136-257).6xhis (Pseudomonas aeruginosa)
T1 chain: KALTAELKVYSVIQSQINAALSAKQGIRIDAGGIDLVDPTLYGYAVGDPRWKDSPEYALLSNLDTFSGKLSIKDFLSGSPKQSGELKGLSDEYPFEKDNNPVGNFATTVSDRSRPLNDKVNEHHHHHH

B1: H1H29336P (antibody, V domains shown)
VH: EVQLVESGGGLVQPGGSLRLSCAASGFTFSSYAMTWVRQAPGKGLEWVSSIRGSGYSSDYADSVKGRFTISRDNSENTVYLQMNRLRAEDTAVYYCAKERSVTAYYYYGMDVWGQGTTVTVSS
VL: DIQLTQSPSFLSASVGDRVTITCWASQDISSFLTWYQQKPGIAPKLLIYTASTLQSGVPSRFSGSGSGTEFTLTISSLQPEDFATYYCQQLKSYPLTFGGGTKVEIKR
B2: H1H29329P (antibody, V domains shown)
VH: EVQLVESGGGLVQPGGSLRLSCAASGFTFSDHEMNWVRQAPGKGLEWISYIGSGVVTMYYADSVRGRFTISRDNAKKTLYLQMNSLRAEDTAVYYCARDRGYYFGSEAFHYWGQGTLVTVSS
VL: DIQMTQSPSTLSASVGDRVTITCRASQSISNWLAWYQQKPGKAPKLLIYKSSSLESGVPSRFSGSGSGTEFTLTISSLQPDDFATYYCQQYKSYSLTFGGGTKVEIKR
B3: H1H29332P (antibody, V domains shown)
VH: EVQLVESGGDLVQPGGSLRLSCKASGFTFSTFAMNWVRQAPGRGLEWVSAIGASGYSTYYVDSMKGRFTISRDNSKNTLYLQMNSLGAEDTAVYYCAKEYSVSSNYYYGMDVWGQGTTVTVSS
VL: DIQMTQSPSSLSASVGDRVTITCRASQTIRRYLNWYQQKAGKAPKLLIYAASSLLSGVPSRFSASGSGTDFTLTISSLQPEDFSTYYCQQTYSIPITFGQGTRLEIKR
B4: REGN3514 (antibody, V domains shown)
VH: EMQLLESGGGLVQPGGSLRLSCAASGFTFSSYAMNWVRQAPGEGLEWVSAITISGITAYYTDSVKGRFTISRDNSKNTLYLQMNSLRAGDTAVYYCAKEEFLPGTHYYYGMDVWGQGTTVTVSS
VL: AIQMTQSPSSLSASVGDRVTITCRASQGIRNDLGWYQQKPGKAPKLVIYSASTLQSGVPSRFSGSGSGTDFTLSISSLQPDDFATYYCLQDYNYPWTFGQGTKVEIKR
notes: also called Control I; Control I-REGN3514
B5: H1H29339P (antibody, V domains shown)
VH: EVQLVESGGDLVQPGGSLRLSCAASGFTFNTYAMNWVRQAPGKGLEWVAVIGGSGYSTNYADSVKGRFTISRDNSKNTLYLQMNSLRTEDTAVYYCAKEGNIVALYWYFDLWGRGTLVTVSS
VL: DIQMTQSPSSLSASVGDRVTITCRASQSISRYLNWYQQKPGKAPKLLIYAASSLQGGVPSKFSGSGSGTDFTLTISSLQPEDFATYYCQQSSTTPLTFGGGTKVEIKR
B6: REGN3977 (antibody, V domains shown)
VH: QVQLKQSGPGLVQPSQSLSITCTVSGFSLTSYGVHWVRQSPGKGLEWLGVIWSGGDTDYNAAFISRLSISKDNSKSQLFFKMNSLRATDTAIYYCARNRGDIYYDFTYAMDYWGQGTSVTVSS
VL: DIQMTQSPASLSASVGETVTITCRASGNIQNYLAWYQQTQGKSPQLLVYSAKTLADGVPSRFSGSGSGTQYSLKINSLQPEDFGSYYCQHFWSTPYTFGGGTKLEIKR
notes: also called Control III; REGN3977-Control III

Each binder was assayed against T2, PcrV of P. aeruginosa strain 6077 (Pseudomonas aeruginosa strain 6077) (assay: cell-based or functional assay).

Binder | A549 Cytotoxicity Assay (IC50) [nM]
B1 | 0.84
B2 | 10.8
B3 | 6.47
B4 | 0.807
B5 | 0.0333

What follows are binders tested against T3, PcrV of P. aeruginosa strain ATCC 700888 (Pseudomonas aeruginosa strain ATCC …) (assay: cell-based or functional assay).

Binder | A549 Cytotoxicity Assay (IC50) [nM]
B1 | 6.37
B2 | 54.3
B3 | 32.9
B4 | 17.8
B5 | 7.82

Molecular target: T2, PcrV of P. aeruginosa strain 6077
Assay: cell-based or functional assay
Remark: another data set of the same source

Binder | Rabbit RBC Hemolysis Assay (IC50) [nM]
B1 | 0.205
B2 | 56.4
B3 | 15.3
B4 | 2.44
B5 | 2.3

Molecular target: T3, PcrV of P. aeruginosa strain ATCC 700888
Assay: cell-based or functional assay
Remark: another data set of the same source

Binder | Rabbit RBC Hemolysis Assay (IC50) [nM]
B1 | 0.81
B2 | 2.39
B3 | 4.06
B4 | 1.01
B5 | 5.59

These binders were tested against T4, recombinant full-length P. aeruginosa PcrV (Pseudomonas aeruginosa) (assay: ELISA, PcrV coated on plate, chemiluminescence).
T4 construct: Coated on ELISA plates; also called Full length PcrV; Full length PerV
Method: (§1) Anti-PcrV monoclonal antibodies (mAbs) were assessed by ELISA for their ability to bind to recombinant PcrV proteins. […] The following morning, plates were washed three times with wash buffer (Imidazole buffered saline with Tween-20) and blocked for 1.5 hours at 25° C. with 200 μl of blocking buffer (3% BSA in PBS). […] Wells were washed three times and then incubated with 100 ng/ml anti-human HRP secondary antibody per well for one hour at 25° C. 100 μl of SuperSignal™ ELISA Pico Chemiluminescent Substrate was added to each well and signal was detected (Victor X3 plate reader, Perkin Elmer). Luminescence values were analyzed by a four-parameter logistic equation over a 10-point response curve (GraphPad Prism).

Binder | EC50 [nM]
B1 | 2.28
B2 | 0.597
B3 | 2.12
B4 | 0.696
B5 | 1.96

These binders were tested against PcrV 136-233 (Pseudomonas aeruginosa) (assay: ELISA, PcrV coated on plate, chemiluminescence).
Method: as §1

Binder | EC50 [nM]
B1 | 1.03
B2 | 7.44
B3 | 0.814
B4 | 7.59
B5 | 0.856

The binders below were run against T5, full-length PcrV.6xhis (Pseudomonas aeruginosa) (assay: SPR (Biacore T200), mAb captured via anti-human Fc, PcrV injected, 25 C).
T5 construct: Recombinant full-length V-tip protein of the type 3 secretion system, His-tagged; also called full-length PcrV with a C-terminal hexahistidine tag
Method: (§2) The equilibrium dissociation constant (KD) for different PcrV reagents binding to purified anti-PcrV monoclonal antibodies were determined using a real-time surface plasmon resonance based Biacore T200 biosensor. All binding studies were performed in 10 mM HEPES, 150 mM NaCl, 3.4 mM EDTA and 0.05% v/v Tween-20, pH 7.4 (HBS-EP) running buffer at 25° C. and 37° C. […] Proteins were injected over the captured anti-PcrV monoclonal antibody surface for 4 minutes at a flow rate of 50 μL/minute, while the dissociation of monoclonal antibody bound PcrV reagent was monitored for 10 minutes in HBS-EP running buffer.
(§3) Kinetic association (kₐ) and dissociation (kd) rate constants were determined by fitting the real-time sensorgrams to a 1:1 binding model using Scrubber 2.0c curve fitting software. Binding dissociation equilibrium constants (KD) and dissociative half-lives (t½) were calculated from the kinetic rate constants as:

Binder | 90 nM Ag Bound (RU) | Kd [nM] | koff [s⁻¹] | kon [M⁻¹ s⁻¹] | t½ [h]
B1 | 102 | ≤ 0.0204 | ≤ 1e-05 | 490000 | ≥ 19.2
B2 | 81 | 5.16 | 0.00095 | 184000 | 0.203
B6 | 146 | 2.39 | 0.000495 | 207000 | 0.39
B3 | 152 | 0.0548 | 1.3e-05 | 237000 | 14.8
B4 | 169 | 0.146 | 3.9e-05 | 267000 | 4.94
B5 | 140 | ≤ 0.0274 | ≤ 1e-05 | 365000 | ≥ 19.2

What follows are binders tested against T5, full-length PcrV.6xhis (assay: SPR (Biacore T200), mAb captured via anti-human Fc, PcrV injected, 37 C).
Method: as §2, §3

Binder | 90 nM Ag Bound (RU) | Kd [nM] | koff [s⁻¹] | kon [M⁻¹ s⁻¹] | t½ [h]
B1 | 80.7 | ≤ 0.0116 | ≤ 1e-05 | 860000 | ≥ 19.2
B2 | 59.6 | 9.12 | 0.00505 | 554000 | 0.0383
B6 | 136 | 3.48 | 0.000917 | 263000 | 0.21
B3 | 163 | 0.092 | 2.68e-05 | 293000 | 7.19
B4 | 141 | 0.453 | 0.000196 | 431000 | 0.985
B5 | 130 | 0.0197 | ≤ 1e-05 | 508000 | ≥ 19.2

Molecular target: T1, PcrV (aa136-257).6xhis
Assay: SPR (Biacore T200), mAb captured via anti-human Fc, PcrV injected, 25 C
Method: as §2, §3

Binder | Kd [nM] | koff [s⁻¹] | kon [M⁻¹ s⁻¹] | t½ [h]
B1 | 0.0408 | 1.48e-05 | 367000 | 13.1
B2 | 15 | 0.0023 | 153000 | 0.0833
B6 | 4.28 | 0.000956 | 223000 | 0.202
B3 | 0.285 | 3.83e-05 | 133000 | 5.03
B4 | 0.83 | 0.000122 | 147000 | 1.58
B5 | 0.0955 | 2.76e-05 | 293000 | 6.97

Molecular target: T1, PcrV (aa136-257).6xhis
Assay: SPR (Biacore T200), mAb captured via anti-human Fc, PcrV injected, 37 C
Method: as §2, §3

Binder | Kd [nM] | koff [s⁻¹] | kon [M⁻¹ s⁻¹] | t½ [h]
B1 | 0.0809 | 4.36e-05 | 544000 | 4.41
B2 | 107 | 0.011 | 103000 | 0.0167
B6 | 11.4 | 0.00245 | 216000 | 0.0783
B3 | 0.595 | 0.000106 | 178000 | 1.82
B4 | 2.42 | 0.000596 | 246000 | 0.323
B5 | 0.186 | 8.15e-05 | 435000 | 2.36
